Data taken from the Human Domainome abundance scans (Beltran et al. 2025).

B1: Gamma-crystallin C, residues 91 to 170; numbered along this chain, P07315 (parent)
chain: RLYEREDHKGLMMELSEDCPSIQDRFHLSEIRSLHVLEGCWVLYELPNYRGRQYLLRPQEYRRCQDWGAMDAKAGSLRRV

Variants of: B1
Assay: abundance fitness (aPCA) (normalised: wild type 0, dead -1); higher = more abundant; growth selection in yeast, the domain comes from the species named
Details: Homo sapiens

Abundance fitness, by site and new letter:
G39: W -0.94 | H -0.151 | F -0.759 | T -0.892 | A -0.56 | V -0.924 | C -0.536 | M -0.93 | N -0.65 | Q -0.853 | Y -0.566 | L -0.89 | P -0.798 | E -0.186 | D -0.298
E38: P -0.642 | A -0.059 | M -0.222 | L -0.379 | H -0.119 | Q 0.171 | C -0.242 | G -0.186 | F -0.216 | V -0.222 | D 0.013 | I -0.711 | K -0.083 | N 0.102 | S -0.015
L46: A 0.023 | T -0.863 | M -0.188 | N -0.767 | W -0.237 | E 0.04 | G -0.27 | D -0.43 | Q -0.262 | C -0.075 | R -0.146 | F 0.047 | Y -0.162 | V -0.98 | K -0.051
L37: V -0.033 | Y -0.3 | W -0.799
P47: C -0.109 | A -0.07 | Y -0.891 | W -0.832 | L -0.601 | Q -0.348 | T -0.449 | D -0.178 | R -0.502 | V -0.591
E45: Q -0.211 | M -0.792 | I -0.762 | P -0.832 | H -0.582 | N -0.933 | W -0.644 | A -0.191 | K -0.465 | L -0.875 | R -0.437 | G -0.492 | D -0.265 | T -0.118 | S -0.149
Y49: S -0.891 | C -0.914 | A -1.04 | R -0.9 | M -0.981 | K -0.918 | L -0.906 | E -0.734 | Q -0.85 | H -0.94 | V -0.969 | N -0.198 | W -0.551 | G -1.11 | P -0.942
L43: Y -0.224 | S -0.865 | Q -0.606 | F -0.645 | R -1.01 | I -0.251 | P -0.992 | N -0.673 | C -0.701 | H -0.757 | M -0.099 | G -0.721 | T -0.674 | A -0.931 | V -0.81 | E -0.804
C40: K -0.202 | D 0.058 | R -0.138 | G -0.186 | W -0.103 | P -0.446 | L -0.042 | A -0.025 | Y -0.284 | V 0.002 | N 0.119 | Q 0.055 | I -0.222 | E 0.052 | T 0.07 | S 0.041 | H -0.09
N48: F 0.077 | C -0.339 | E -0.314 | S -0.238 | Q -0.017 | T -0.823 | H -0.022 | G -0.07 | A -0.348 | P -0.65 | R -0.234 | K -0.215 | D -0.007 | V -0.929 | W -0.151 | Y -0.006
R50: W -0.664 | E -0.068 | N -0.242 | G 0.04 | A -0.066 | S -0.007 | V -0.085 | L -0.063 | T -0.002 | C -0.021 | Q -0.012 | F -0.375 | P -0.916 | M -0.108 | K -0.029 | Y -0.606
Y44: T -1.04 | L -0.648 | V -0.784 | W -0.599 | P -0.905 | G -0.608 | F -0.069 | S -0.568 | Q -0.567 | A -0.671 | N -0.325 | E -0.957 | R -0.478 | H -0.306
